Experimental data: patent US20250304693A1 (HIFIBIO, published 2025)

Experiments:
[1] = target: T1, human BTLA (B- and T-lymphocyte attenuator) on cells (human, UniProt Q7Z6A9 31-289); assay: FACS on HEK293 cells overexpressing human BTLA, AF647 anti-human IgG Fc detection
T1 construct: whole, on cells; also called hBTLA; HEK293.BTLA
Method: (§1) In FIGS. 2A-2B, HEK293 cells overexpressing human BTLA and Expi293 cells overexpressing cynomolgus BTLA were incubated with different concentrations of anti-BTLA parental antibodies. Anti-BTLA antibody binding to target cells was quantified with an AF647-conjugated anti-human IgG Fc 2nd antibody by FACS.

[2] = target: T1, human BTLA (B- and T-lymphocyte …); assay: cell-based or functional assay
[3] = target: T2, recombinant human BTLA (human, UniProt Q7Z6A9 31-157, limits assumed); assay: ELISA on recombinant human BTLA
T2 construct: ELISA antigen; construct not described
T2 sequence (looked up): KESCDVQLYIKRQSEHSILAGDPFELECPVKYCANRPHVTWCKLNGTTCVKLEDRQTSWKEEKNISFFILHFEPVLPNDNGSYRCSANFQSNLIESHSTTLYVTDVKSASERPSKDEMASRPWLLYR

[4] = target: T1, human BTLA (B- and T-lymphocyte …); assay: FACS, primary human T cells, donor 149, AF647 anti-human IgG Fc secondary antibody
Method: (§2) In FIGS. 4A-4D, primary T cells and B cells were isolated from human PBMC with EasySep™ Human T Cell Isolation Kit and B cell isolation kit ([…] Technologies: Vancouver, Canada). Isolated T cells or B cells were incubated with different concentrations of anti-BTLA parental antibodies. Anti-BTLA antibody binding to target cells was quantified with an AF647-conjugated anti-human IgG Fc 2nd antibody by FACS.

[5] = target: T1, human BTLA (B- and T-lymphocyte …); assay: FACS, primary human B cells, donor 149, AF647 anti-human IgG Fc secondary antibody
Method: as §2

[6] = target: T1, human BTLA (B- and T-lymphocyte …); assay: FACS, primary human T cells, donor 1709, AF647 anti-human IgG Fc secondary antibody
Method: as §2

[7] = target: T1, human BTLA (B- and T-lymphocyte …); assay: cell-based or functional assay; remark: listed apart in the source
[8] = target: T3, cynomolgus BTLA on cells (cynomolgus, UniProt A0A2K5W7M7 31-289); assay: FACS on Expi293 cells overexpressing cynomolgus BTLA, AF647 anti-human IgG Fc detection
T3 construct: whole, on cells; Overexpressed on Expi293 cells; also called cyno BTLA; CynoBTLA
T3 sequence: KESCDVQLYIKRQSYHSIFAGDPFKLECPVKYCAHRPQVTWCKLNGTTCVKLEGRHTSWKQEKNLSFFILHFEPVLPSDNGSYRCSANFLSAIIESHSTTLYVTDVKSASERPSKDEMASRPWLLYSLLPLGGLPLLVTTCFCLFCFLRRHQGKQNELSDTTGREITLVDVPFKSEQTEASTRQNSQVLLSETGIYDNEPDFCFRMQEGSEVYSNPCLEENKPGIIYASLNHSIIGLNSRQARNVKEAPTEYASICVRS
Method: as §1

[9] = target: T1, human BTLA (B- and T-lymphocyte …); assay: FACS, primary human B cells, donor 1709, AF647 anti-human IgG Fc secondary antibody
Method: as §2

[10] = target: T1, human BTLA (B- and T-lymphocyte …); assay: FACS competition on HEK293.BTLA cells; competitor DL650-conjugated soluble HVEM
Method: (§3) In FIG. 3A, recombinant HVEM soluble protein was conjugated with DyLight 650 (DL650) fluorophore. HEK293 cells overexpressing hBTLA (HEK293.BTLA) were preincubated with increasing concentrations of HFB6-2 and HFB6-3 at 4° C. for 30 minutes and then with DL650-conjugated HVEM for an additional 30 minutes. After washing, soluble HVEM remaining associated with BTLA on HEK293.BTLA cells was measured by FACS. HFB6-2 and HFB6-3 blocked soluble HVEM and cellular BTLA interaction with single digit nM IC₅₀.

[11] = target: T1, human BTLA (B- and T-lymphocyte …); assay: FACS on HEK293T.hBTLA cells, AF647 anti-human IgG Fc detection
Method: (§4) In FIGS. 11A and 11B, HEK293 overexpressing human BTLA (FIG. 11A) and Expi293 cells overexpressing cynomolgus BTLA (FIG. 11B) were incubated with different concentrations of selected HFB6-3 humanized variants with cysteine mutations. Anti-BTLA antibodies binding to target cells were quantified with an AF647-conjugated anti-human IgG Fc 2nd antibody by FACS. HFB6-3hz24-hG4P-C109A, HFB6-3hz25-hG4P-C109A, HFB6-3hz24-hG4P-C109S and HFB6-3hz25-hG4P-C109S bound to human BTLA and cyno BTLA with single digit nM and sub-nM EC₅₀, similar as parental HFB6-3 (FIGS. 11A and 11B and Table 13).

[12] = target: T3, cynomolgus BTLA on cells; assay: FACS on Expi293.cynoBTLA cells, AF647 anti-human IgG Fc detection
Method: as §4

[13] = target: T1, human BTLA (B- and T-lymphocyte …); assay: cell-based or functional assay; remark: listed apart in the source
[14] = target: T1, human BTLA (B- and T-lymphocyte …); assay: FACS competition on HEK293T.hBTLA cells; competitor hrHVEM-His-DL650
Method: as §3, with “12A,” for “3A,”, “selected HFB6-3 humanized variants with cysteine mutants or parental” for “HFB6-2 and”, “for” for “for an”, “FACS.” for “FACS. HFB6-2 and HFB6-3 blocked soluble HVEM and cellular BTLA interaction with single digit nM IC₅₀.”

[15] = target: T1, human BTLA (B- and T-lymphocyte …); assay: FACS, HEK293 cells overexpressing human BTLA, AF647 anti-human IgG Fc secondary antibody
[16] = target: T3, cynomolgus BTLA on cells; assay: FACS, Expi293 cells overexpressing cynomolgus BTLA, AF647 anti-human IgG Fc secondary antibody

B1: HFB6-2 (antibody, V domains shown)
VH: EVQLQQSGAELVKPGASVKLSCTASGVNIKDTYMYWVKQRPEQGLEWIGRIDPANGYTRYDPKFQDKATVTADTSSNTAHLQLSSLTSEDTAVYYCAVNDGYFEYFDVWGAGTTVTVSS
VL: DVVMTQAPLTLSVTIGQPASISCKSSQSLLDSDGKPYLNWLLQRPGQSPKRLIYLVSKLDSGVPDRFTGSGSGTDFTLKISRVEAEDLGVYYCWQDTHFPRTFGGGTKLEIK
notes: Mouse lead antibody; also called HFB6-2-hG4P; parental HFB6-2
[1]
  EC50: 2.34 nM
[2]
  BTLA-HVEM blockade reporter assay, EC50: 10.2 nM
[3]
  EC50: 2.35 nM
[4]
  EC50: 1.4 nM
[5]
  EC50: 0.8 nM
[6]
  EC50: 2 nM
[7]
  Reporter EC50: 11.5 nM
[8]
  EC50: 0.614 nM
[9]
  EC50: 0.28 nM
[10]
  IC50: 5.45 nM

B2: HFB6-3 (antibody, V domains shown)
VH: EVQLQQSGAELVKPGASVKLSCTDSGFNIKDTYIHWVTQRPQQGLEWIGRIDPANGFTRYDPKFQGKATITSDTSSNTAYLQLSSLTSEDTAVYYCAREDGYPYYTLDCWGQGTSVTVSS
VL: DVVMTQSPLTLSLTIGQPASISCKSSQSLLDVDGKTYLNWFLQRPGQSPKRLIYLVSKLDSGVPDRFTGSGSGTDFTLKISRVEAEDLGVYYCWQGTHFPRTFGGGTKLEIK
notes: Mouse lead antibody; also called HFB6-3-hG4P; parental HFB6-3
[1]
  EC50: 1.45 nM
[11]
  EC50: 3.21 nM
[12]
  EC50: 5.7 nM
[2]
  BTLA-HVEM blockade reporter assay, EC50: 12.5 nM
[4]
  EC50: 3.7 nM
[5]
  EC50: 0.44 nM
[13]
  CHO.TCRa.hHVEM/Jurkat.hBTLA.NFAT-luc (EC50 (nM)): 7.9 nM
[6]
  EC50: 7.3 nM
[14]
  IC50: 2.69 nM
[8]
  EC50: 0.823 nM
[9]
  EC50: 0.28 nM
[10]
  IC50: 7.71 nM

B3: HFB6-3hz25-hG4P-C109S (antibody, V domains shown)
VH: QVQLQESGPGLVKPSGTLSLTCADSGFSISDTYIHWVRQPPGKGLEWIGRIDPANGFTRYNPSLKSRVTISSDKSKNQASLKLSSVTAADTAVYYCAREDGYPYYTLDSWGQGTTVTVSS
VL: DIVMTQSPDSLALSLGERATINCKSSQSLLDVDGKTYLNWFQQKPGQPPKRLIYLVSKLDSGVPDRFSGSGSGTDFTLTISSVQAEDVAVYYCWQGTHFPRTFGQGTKLEIK
notes: Humanized variant of HFB6-3
[11]
  EC50: 4.04 nM
[12]
  EC50: 8.83 nM
[13]
  CHO.TCRa.hHVEM/Jurkat.hBTLA.NFAT-luc (EC50 (nM)): 14.4 nM
[14]
  IC50: 3.2 nM

B4: 22B3 (antibody, V domains shown)
VH: QVQLVQSGAEVKKPGASVKVSCKASGFSLSSYGVSWVRQAPGQGLEWMGAISYDGITYYASWAKSRVTMTRDTSTSTVYMELSSLRSEDTAVYYCARGDYYDDYVYVYALDIWGQGTLVTVSS
VL: EIVLTQSPGTLSLSPGERATLSCQASQSISTALAWYQQKPGQAPRLLIYAASTLASGIPDRFSGSGSGTDFTLTISRLEPEDFAVYYCQQGYSSSNLDNVFGGGTKVEIKR
[15]
  EC50 (read off the curve): ~0.8 nM
[16]
  EC50 (read off the curve): ~0.6 nM
